This note sets out measurements from publication PMC9886983, “Mechanism of regulation of the Helicobacter pylori Cagβ ATPase by CagZ” (Nature Communications, 2023).

Series [1] concerns the molecule itself. Put plainly: crystal structure; apo-Cagβ1, 2.8 Å; crystals from 35% PEG400, 0.2 M Li2SO4, 0.1 M Tris 8.5 at 285 K; six protomers in the asymmetric unit.
The target of series [2] is T1, Cagβ-AAD1 (residues 289-488) E396A (Helicobacter pylori 26695, UniProt O25260 289-488, E396A).
T1 construct: Cagβ (HP0524, Cag5) of Helicobacter pylori 26695, residues 289-488, with E396A; also called Cagβ-AAD1_E396A; source: E. coli BL21 star (DE3), purified as the wild type but without TEV protease treatment; not shown: His6, N-terminal, kept; TrxA, N-terminal, kept
T1 sequence: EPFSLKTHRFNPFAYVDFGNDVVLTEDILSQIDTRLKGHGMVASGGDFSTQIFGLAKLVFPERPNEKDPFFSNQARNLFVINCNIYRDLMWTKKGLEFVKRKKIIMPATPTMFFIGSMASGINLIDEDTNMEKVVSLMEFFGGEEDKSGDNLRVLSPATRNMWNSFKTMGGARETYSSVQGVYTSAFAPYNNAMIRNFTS
As to the kind of experiment: ITC; ITC-200, 25 °C, 20 mM Tris pH 8.0, 150 mM NaCl; Cagβ proteins (20 µM) in the cell, CagZ proteins (200 µM) in the syringe. As to conditions: both partners purified. (ITC needs no label: the signal is the heat of the interaction.)

In series [3] the target is T2, Cagβ-AAD2 (residues 289-505) (Helicobacter pylori 26695, UniProt O25260 289-505).
T2 construct: Cagβ (HP0524, Cag5) of Helicobacter pylori 26695, residues 289-505, holds the all-alpha domain (AAD); also called Cagβ-AAD2 (289-505); source: E. coli BL21 star (DE3), purified (Ni-NTA, TEV, second Ni-NTA, SEC); not shown: His6, N-terminal, cleaved; TrxA, N-terminal, cleaved
T2 sequence: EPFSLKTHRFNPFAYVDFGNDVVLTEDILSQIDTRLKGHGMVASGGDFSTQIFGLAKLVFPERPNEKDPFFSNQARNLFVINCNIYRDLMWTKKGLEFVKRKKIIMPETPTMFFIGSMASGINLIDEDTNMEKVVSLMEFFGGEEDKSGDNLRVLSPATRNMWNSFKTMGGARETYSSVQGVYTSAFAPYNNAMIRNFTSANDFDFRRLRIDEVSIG
The description is as above. As to conditions: both partners purified.

The next series has as its target T3, Cagβ2 (residues 243-748) (Helicobacter pylori 26695, UniProt O25260 243-748).
T3 construct: Cagβ (HP0524, Cag5) of Helicobacter pylori 26695, residues 243-748; also called Cagβ2 (243-748); source: E. coli BL21 star (DE3), purified (Ni-NTA, TEV, second Ni-NTA, SEC); not shown: His6, N-terminal, cleaved; TrxA, N-terminal, cleaved
T3 sequence: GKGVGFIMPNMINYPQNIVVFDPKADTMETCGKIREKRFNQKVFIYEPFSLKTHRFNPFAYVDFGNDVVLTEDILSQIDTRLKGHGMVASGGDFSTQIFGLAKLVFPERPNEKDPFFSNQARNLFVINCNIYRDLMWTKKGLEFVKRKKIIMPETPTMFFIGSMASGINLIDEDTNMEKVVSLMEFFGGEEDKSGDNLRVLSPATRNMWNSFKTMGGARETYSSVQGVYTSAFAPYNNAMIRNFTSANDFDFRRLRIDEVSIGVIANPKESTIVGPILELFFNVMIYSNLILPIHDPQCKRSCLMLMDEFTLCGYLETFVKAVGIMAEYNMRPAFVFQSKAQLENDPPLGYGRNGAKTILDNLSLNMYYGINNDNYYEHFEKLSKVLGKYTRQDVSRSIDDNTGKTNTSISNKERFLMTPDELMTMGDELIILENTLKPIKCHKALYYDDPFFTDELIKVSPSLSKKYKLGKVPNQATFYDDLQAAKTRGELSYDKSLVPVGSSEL
The description is as above. As to conditions: both partners purified.

The target in series [4] is T4, Cagβ1 (soluble region of Cagβ, residues 166-748) (Helicobacter pylori 26695, UniProt O25260 166-748).
T4 construct: Cagβ (HP0524, Cag5; VirD4 homolog) of Helicobacter pylori 26695, residues 166-748, soluble region without the transmembrane region; also called Cagβ1(166-748); Cagβ-WT; source: E. coli BL21 star (DE3), purified (Ni-NTA, TEV, second Ni-NTA, SEC); not shown: His6, N-terminal, cleaved; TrxA, N-terminal, cleaved
T4 sequence: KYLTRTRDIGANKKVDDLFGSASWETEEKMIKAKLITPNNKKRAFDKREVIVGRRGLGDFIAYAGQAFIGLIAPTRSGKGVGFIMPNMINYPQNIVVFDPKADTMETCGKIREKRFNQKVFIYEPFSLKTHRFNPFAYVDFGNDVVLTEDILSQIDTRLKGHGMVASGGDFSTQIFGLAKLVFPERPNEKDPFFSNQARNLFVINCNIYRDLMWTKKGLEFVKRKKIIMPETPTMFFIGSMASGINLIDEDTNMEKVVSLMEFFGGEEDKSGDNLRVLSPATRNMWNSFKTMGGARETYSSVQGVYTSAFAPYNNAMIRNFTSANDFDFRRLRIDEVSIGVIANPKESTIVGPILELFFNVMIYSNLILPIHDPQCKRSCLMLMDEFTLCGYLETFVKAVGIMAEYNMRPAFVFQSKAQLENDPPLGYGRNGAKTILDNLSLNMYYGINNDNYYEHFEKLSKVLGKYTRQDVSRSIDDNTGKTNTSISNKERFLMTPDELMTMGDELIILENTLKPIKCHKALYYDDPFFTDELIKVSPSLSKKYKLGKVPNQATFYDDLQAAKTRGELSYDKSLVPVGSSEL
The series is described as above. As to conditions: both partners purified.

B1: Cagβ1 (soluble region of Cagβ, residues 166–748) (domain or fragment)
chain: KYLTRTRDIGANKKVDDLFGSASWETEEKMIKAKLITPNNKKRAFDKREVIVGRRGLGDFIAYAGQAFIGLIAPTRSGKGVGFIMPNMINYPQNIVVFDPKADTMETCGKIREKRFNQKVFIYEPFSLKTHRFNPFAYVDFGNDVVLTEDILSQIDTRLKGHGMVASGGDFSTQIFGLAKLVFPERPNEKDPFFSNQARNLFVINCNIYRDLMWTKKGLEFVKRKKIIMPETPTMFFIGSMASGINLIDEDTNMEKVVSLMEFFGGEEDKSGDNLRVLSPATRNMWNSFKTMGGARETYSSVQGVYTSAFAPYNNAMIRNFTSANDFDFRRLRIDEVSIGVIANPKESTIVGPILELFFNVMIYSNLILPIHDPQCKRSCLMLMDEFTLCGYLETFVKAVGIMAEYNMRPAFVFQSKAQLENDPPLGYGRNGAKTILDNLSLNMYYGINNDNYYEHFEKLSKVLGKYTRQDVSRSIDDNTGKTNTSISNKERFLMTPDELMTMGDELIILENTLKPIKCHKALYYDDPFFTDELIKVSPSLSKKYKLGKVPNQATFYDDLQAAKTRGELSYDKSLVPVGSSEL
notes: Cagβ (HP0524, Cag5; VirD4 homolog) of H. pylori 26695, residues 166-748, the soluble (cytosolic) region; Dynamic hexamer; monomer at low concentration; also called apo-Cagβ1; HP0524; source: E. coli BL21 star (DE3), purified (Ni-NTA, TEV cleavage, second Ni-NTA, SEC); also co-expressed with CagZ-pET-28a and co-purified; not shown: His6, N-terminal, cleaved; TrxA, N-terminal, cleaved
Regarding B1, in series [1], the “stoichiometry N” value came to 6.

B2: CagZ (residues 2-199), wild type (natural protein)
chain: ELGFNETERQKILDSNKSLMGNANEVRDKFIQNYASSLKDSNDPQDFLRRVQELRINMQKNFISFDVYYNYLNNLVLASYNRCKQEKTFAESTIKNELTLGEFVAEISDNFNNFMCDEVARISDLVASYLPREYLPPFIDGNMMGVAFQILGIDDFGRKLNEIVQDIGTKYIILSKNKTYLTSLERAKLITQLKLNLE
notes: CagZ of Helicobacter pylori 26695, residues 2-199; also called CagZ-WT; source: E. coli BL21 star (DE3), purified (Ni-NTA, TEV, second Ni-NTA, SEC); not shown: His6, N-terminal, cleaved; TrxA, N-terminal, cleaved
Turning to B2, the Kd was around 50 nM in series [2], 20 nM in series [3], 20 nM in the series with Cagβ2 (residues 243-748) and 50 nM in series [4].

In general, stoichiometry N refers to the number of molecules, sites or subunits per partner or assembly. By Kd is commonly meant a measure of binding affinity in units of concentration. A higher Kd goes with weaker binding.
